Experimental findings from PMC7615680, “In vitro construction of the COQ metabolon unveils the molecular determinants of coenzyme Q biosynthesis” (Nature catalysis, 2024) are described below.

Data set [1] has as its target T1, COQ3 (tetrapod ancestral) (Tetrapoda, UniProt Z9LPW8APZ1).
T1 construct: expressed in E. coli
T1 sequence (Z9LPW8APZ1 39-362): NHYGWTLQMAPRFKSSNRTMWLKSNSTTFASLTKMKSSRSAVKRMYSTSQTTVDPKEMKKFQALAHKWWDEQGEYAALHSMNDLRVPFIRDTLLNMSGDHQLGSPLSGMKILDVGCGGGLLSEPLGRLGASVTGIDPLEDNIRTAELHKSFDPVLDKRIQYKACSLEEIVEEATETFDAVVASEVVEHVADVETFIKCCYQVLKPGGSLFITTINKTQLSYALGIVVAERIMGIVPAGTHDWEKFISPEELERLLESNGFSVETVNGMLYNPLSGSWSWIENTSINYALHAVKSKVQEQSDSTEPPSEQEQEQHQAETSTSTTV
The data set is described as follows: microscale thermophoresis. Type of data set: binding. (In general: In MST a laser heats a spot of the sample, and binding alters the fluorescence response.)

Data set [2] has as its system CC(C)=CCc1cc(C(=O)O)cc(O)c1O. The data set is described as follows: purified protein. The following applies: 2 mM SAM, no added Mg2+, pH 7.2, 25 °C.
In a further data set the test system is COc1cc(O)cc(CC=C(C)C)c1O. As to the kind of experiment: purified protein. To be noted: 1 mM SAM, 150 uM NADH, 25 °C.
The subject of data set [3] is NC(=O)C1=CN([C@@H]2O[C@H](COP(=O)(O)OP(=O)(O)OC[C@H]3O[C@@H](n4cnc5c(N)ncnc54)[C@H](O)[C@@H]3O)[C@@H](O)[C@H]2O)C=CC1. The data set is described as follows: purified protein. The following applies: 700 uM non-prenylated 5ox, without COQ9, 0.05% DDM, pH 7.2, 25 °C.
Data set [4] relates to Nc1ncnc2c1ncn2[C@@H]1O[C@H](COP(=O)(O)OP(=O)(O)OP(=O)(O)O)[C@@H](O)[C@H]1O. As to the kind of experiment: ATPase activity (Malachite green phosphate). To be noted: basal ATPase; no COQ partner or intermediate. The data set is classed as biochemical, Tetrapoda.

The Kd is the free concentration of one partner at which half of the binding sites on the other are occupied at equilibrium, for simple one-to-one binding. As for `CC(C)=CCc1cc(C(=O)O)cc(O)c1O` [compound 2, 3,4-dihydroxy-5-(3-methylbut-2-en-1-yl)benzoic acid], binding in data set [1] was put at a Kd of 6.5 µM.

The Km is the substrate concentration at which the rate is half of its maximum. In general, kcat refers to the number of substrate molecules converted per active site and unit of time at saturation. COQ3 (tetrapod ancestral) (Tetrapoda): in data set [2], the Michaelis constant (Km) is 887.9 µM and the turnover number (kcat) was 0.0467 s⁻¹.

Turning to COQ5 (tetrapod ancestral) (Tetrapoda), in the data set with COc1cc(O)cc(CC=C(C)C)c1O, the Km stood at 444 µM and the turnover number (kcat) came to 0.04 s⁻¹.

As for COQ7 (tetrapod ancestral) (Tetrapoda), in data set [3], the Michaelis constant (Km) is 141.7 µM and the catalytic constant (kcat) came out at 0.02 s⁻¹.

Take COQ8B (tetrapod ancestral) (Tetrapoda): in data set [4], the Km amounted to 26.6 µM and the kcat turned out to be 0.0067 s⁻¹.
